As usually defined, the Kd is the free concentration of one partner at which half of the binding sites on the other are occupied at equilibrium, for simple one-to-one binding. A higher Kd goes with lower affinity.

This note sets out measurements from paper PMC12905498 (2026).

Assay [1] has as its target T1, Plasmodium berghei HAP2 domain 3 (P. berghei).
T1 chain: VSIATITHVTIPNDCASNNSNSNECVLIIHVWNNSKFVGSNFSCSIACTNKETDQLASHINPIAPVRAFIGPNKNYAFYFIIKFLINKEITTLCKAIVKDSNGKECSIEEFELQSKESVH
Briefly: BLI.

Assay [2] concerns the target T2, Plasmodium falciparum HAP2 domain 3 (PfHAP2 D3 HisAvi), deglycosylated (P. falciparum, deglycosylated with PNGase F).
T2 chain: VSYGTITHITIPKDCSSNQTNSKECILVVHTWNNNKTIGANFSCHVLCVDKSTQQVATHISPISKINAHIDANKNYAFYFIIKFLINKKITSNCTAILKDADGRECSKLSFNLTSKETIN
Briefly: BLI. (BLI is a label-free optical method that tracks binding on a fibre tip over time.)

In assay [3] the target is T2, Plasmodium falciparum HAP2 domain 3 …. Briefly: BLI; single experiment.
Assay [4] addresses T3, Plasmodium vivax HAP2 domain 3 (P. vivax).
T3 chain: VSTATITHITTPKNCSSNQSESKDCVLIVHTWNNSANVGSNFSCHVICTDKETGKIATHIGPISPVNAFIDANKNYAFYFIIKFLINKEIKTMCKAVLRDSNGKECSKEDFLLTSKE
Briefly: BLI.

B1: anti-PbHAP2 D3 mAb 1.12 (variable regions in AbVec-hIgG1 and AbVec-IgKappa) (antibody, V domains shown)
VH: EFQLLQSGPELVKPGASVKISCKASDYSLSDYNMNWVRQRSGKSLEWIGVINPNHGTTHYNQKFKGKATLTVDQSSSTAYMQLTSLTSEDSAVYYCASPIHYGNHVPFDYWGQGTTVTVSS
VL: DIQMTQTTSSLSASLGDRVTISCRTGQDISNYLNWYQQKPDGTVKLLIYFTSRLHSGVPSRFSGSGSGTDYSLTISNLEQEDIATYFCQQGITLPWTFGGGTKLEIK
Take B1: the Kd in assay [1] is 5.1 nM.

B2: WNbFc 334 (nanobody WNb 334 fused to hinge and Fc of human IgG1) (Fc fusion)
chain: QVQLQESGGGLVQPGGSLRLSCAASGFTLDDYAIGWFRQDPGKGREGVSCISLSDGSTYYADAVTGRFTISRDNAKDTVYLQMNSLKPEDTAVYYCAALSQKQMTTVQAMCAVPIANYWGQGTQVTVSS
For B2, the values for the dissociation constant (Kd) in assay [1], in assay [2] and in assay [3] were 1440 nM, 22.2 nM and 19.7 nM, respectively.

B3: WNbFc 335 (nanobody WNb 335 fused to hinge and Fc of human IgG1) (Fc fusion)
chain: QVQLQESGGGLVQPGGSLRLSCEASASGTIVALGTMAWYRQAPGNQRELVATITEESSTYYADSVKGRCTISRDNARNTMYLRLNSLKPEDTAVYYCNLANFWGQGTQVTVSS
Consider B3, for which the Kd in assay [2] is 38.8 nM; in assay [3], 35.2 nM.

B4: anti-PbHAP2 D3 mAb 6.14 (variable regions in AbVec-hIgG1 and AbVec-IgKappa) (antibody, V domains shown)
VH: EVQLVESGGGLVKPGGSLKLSCAASEFTFSDYGMHWVRQAPEKGLEWVASISSGSNSIYYSDTVKGRFTISRDNAKSILFLQMTSLRSEDTAMYYCSREAYFAMDYWGQGTSVTVSS
VL: DIQMTQSPSSLSAILGGKVTITCKASQDIHKYIAWYQHKPGKGPRLLIYYTSTLQPGIPSRFSGSGSGRDYSFSISNLEPEDVATYFCLQYDNLYTFGGGTKVEIE
Molecule B4 came in with a dissociation constant (Kd) in assay [1] of 12.1 nM.

B5: WNbFc 333 (nanobody WNb 333 fused to hinge and Fc of human IgG1) (Fc fusion)
chain: QVQLQESGGGSVQPGGSLRLSCAASGFTLEDYAIGWFRQAPGKGREGISCISSTDGSTHYADSAKGRFTISRDDAKNTAYLQMNSLKVEDTDVYYCAALSQEHMITVQRMCAVPAAHYWGRGTQVTVSS
Turning to B5, the Kd in assay [4] is 2250 nM; in assay [1] it was 3650 nM; in assay [2], 10.5 nM; in assay [3], 9.5 nM.
